B1: GpH7-B3 variant T335_13S/GpL16-k0 (antibody, human IgG1, kappa)
heavy: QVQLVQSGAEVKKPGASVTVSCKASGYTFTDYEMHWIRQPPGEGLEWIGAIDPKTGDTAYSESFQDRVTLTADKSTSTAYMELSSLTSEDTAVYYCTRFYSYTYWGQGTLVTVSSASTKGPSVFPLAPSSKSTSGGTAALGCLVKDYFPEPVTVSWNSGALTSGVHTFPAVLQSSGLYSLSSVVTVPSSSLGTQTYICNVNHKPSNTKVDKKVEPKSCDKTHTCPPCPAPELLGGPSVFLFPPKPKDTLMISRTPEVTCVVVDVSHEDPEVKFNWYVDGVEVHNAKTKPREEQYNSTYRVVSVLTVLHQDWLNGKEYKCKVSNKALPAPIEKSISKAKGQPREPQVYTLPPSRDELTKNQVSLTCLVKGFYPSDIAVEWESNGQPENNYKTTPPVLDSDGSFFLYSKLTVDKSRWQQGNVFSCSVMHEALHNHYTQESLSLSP
light: DIVMTQSPLSLPVTPGEPASISCQASESLVHSNRNTYLHWYLQKPGQSPQLLIYKVSNRFSGVPDRFSGSGSGTDFTLKISRVEAEDVGVYYCSQNTHVPPTFGQGTKVEIERTVAAPSVFIFPPSDEQLKSGTASVVCLLNNFYPREAKVQWKVDNALQSGNSQESVTEQDSKDSTYSLSSTLTLSKADYEKHKVYACEVTHQGLSSPVTKSFNRGEC
notes: Alteration in both H chains; also called Ho Ab T335_13S
B2: GpH7-B3 variant Y300_07I/GpL16-k0 (antibody, human IgG1, kappa)
heavy: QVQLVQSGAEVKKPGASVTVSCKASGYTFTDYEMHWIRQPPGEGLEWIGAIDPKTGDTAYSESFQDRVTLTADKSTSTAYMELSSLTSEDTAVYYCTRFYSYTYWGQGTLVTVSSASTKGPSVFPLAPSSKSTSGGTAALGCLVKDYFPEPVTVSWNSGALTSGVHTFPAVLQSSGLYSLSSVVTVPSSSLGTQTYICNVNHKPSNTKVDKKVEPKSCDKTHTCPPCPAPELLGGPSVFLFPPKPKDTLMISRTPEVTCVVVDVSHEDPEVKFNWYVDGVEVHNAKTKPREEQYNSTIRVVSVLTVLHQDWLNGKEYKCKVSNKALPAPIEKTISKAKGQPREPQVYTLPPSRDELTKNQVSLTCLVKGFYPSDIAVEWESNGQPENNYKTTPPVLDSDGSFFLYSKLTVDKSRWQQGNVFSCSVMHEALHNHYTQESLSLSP
light: B1 light
notes: Alteration in both H chains; also called Ho Ab Y300_07I
B3: GpH7-B3 variant Y296_02A/GpL16-k0 (antibody, human IgG1, kappa)
heavy: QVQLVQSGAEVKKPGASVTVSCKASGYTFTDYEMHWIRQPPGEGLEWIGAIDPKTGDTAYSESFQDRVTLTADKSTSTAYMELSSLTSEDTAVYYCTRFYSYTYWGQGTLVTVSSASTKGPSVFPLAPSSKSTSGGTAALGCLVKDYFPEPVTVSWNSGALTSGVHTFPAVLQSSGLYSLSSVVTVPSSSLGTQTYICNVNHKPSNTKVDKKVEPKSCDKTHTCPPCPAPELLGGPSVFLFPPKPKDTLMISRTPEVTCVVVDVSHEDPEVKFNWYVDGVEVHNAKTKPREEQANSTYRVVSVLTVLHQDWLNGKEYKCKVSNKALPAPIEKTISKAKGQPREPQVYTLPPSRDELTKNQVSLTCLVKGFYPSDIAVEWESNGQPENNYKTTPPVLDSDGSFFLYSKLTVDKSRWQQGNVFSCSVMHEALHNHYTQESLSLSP
light: B1 light
notes: Alteration in both H chains; also called Ho Ab Y296_02A
B4: GpH7-B3 variant Y296_08L/GpL16-k0 (antibody, human IgG1, kappa)
heavy: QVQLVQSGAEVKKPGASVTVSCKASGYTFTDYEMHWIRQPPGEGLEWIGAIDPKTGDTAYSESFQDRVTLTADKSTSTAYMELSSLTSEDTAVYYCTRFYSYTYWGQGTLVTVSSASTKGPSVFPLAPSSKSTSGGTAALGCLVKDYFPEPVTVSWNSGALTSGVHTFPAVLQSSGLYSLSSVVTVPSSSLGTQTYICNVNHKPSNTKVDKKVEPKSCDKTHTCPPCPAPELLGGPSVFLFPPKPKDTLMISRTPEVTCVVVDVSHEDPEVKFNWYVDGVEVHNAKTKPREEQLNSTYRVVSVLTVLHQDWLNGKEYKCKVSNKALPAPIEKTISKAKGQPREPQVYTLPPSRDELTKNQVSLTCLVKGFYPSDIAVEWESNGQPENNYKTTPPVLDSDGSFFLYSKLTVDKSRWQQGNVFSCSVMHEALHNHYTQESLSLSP
light: B1 light
notes: Alteration in both H chains; also called Ho Ab Y296_08L
B5: GpH7-B3 variant Y296_03V/GpL16-k0 (antibody, human IgG1, kappa)
heavy: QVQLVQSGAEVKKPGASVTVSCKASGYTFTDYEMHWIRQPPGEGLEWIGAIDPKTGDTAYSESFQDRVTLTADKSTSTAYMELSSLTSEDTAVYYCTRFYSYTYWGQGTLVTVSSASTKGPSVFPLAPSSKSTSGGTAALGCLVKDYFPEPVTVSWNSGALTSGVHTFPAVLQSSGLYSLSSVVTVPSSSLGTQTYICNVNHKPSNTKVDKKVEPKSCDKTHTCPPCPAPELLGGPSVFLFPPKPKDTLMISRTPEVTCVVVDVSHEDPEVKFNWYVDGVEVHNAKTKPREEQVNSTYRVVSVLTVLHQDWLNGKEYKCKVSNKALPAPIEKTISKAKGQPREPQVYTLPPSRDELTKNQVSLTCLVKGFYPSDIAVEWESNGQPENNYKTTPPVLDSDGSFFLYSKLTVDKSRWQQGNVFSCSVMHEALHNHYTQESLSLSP
light: B1 light
notes: Alteration in both H chains; also called Ho Ab Y296_03V
B6: GpH7-B3 variant Y296_07I/GpL16-k0 (antibody, human IgG1, kappa)
heavy: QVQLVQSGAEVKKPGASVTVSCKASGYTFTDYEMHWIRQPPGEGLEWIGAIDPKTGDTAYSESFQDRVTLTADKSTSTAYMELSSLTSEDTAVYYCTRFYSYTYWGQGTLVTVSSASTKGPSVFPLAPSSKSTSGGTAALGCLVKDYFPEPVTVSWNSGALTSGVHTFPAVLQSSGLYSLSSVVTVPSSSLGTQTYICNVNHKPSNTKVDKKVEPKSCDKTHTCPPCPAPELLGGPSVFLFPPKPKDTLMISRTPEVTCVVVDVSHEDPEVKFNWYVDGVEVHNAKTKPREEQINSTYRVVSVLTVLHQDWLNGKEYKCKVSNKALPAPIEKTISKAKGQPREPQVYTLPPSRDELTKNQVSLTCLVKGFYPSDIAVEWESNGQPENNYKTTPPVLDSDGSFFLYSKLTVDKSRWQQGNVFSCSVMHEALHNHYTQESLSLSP
light: B1 light
notes: Alteration in both H chains; also called Ho Ab Y296_07I
B7: GpH7-B3 variant Y300_16H/GpL16-k0 (antibody, human IgG1, kappa)
heavy: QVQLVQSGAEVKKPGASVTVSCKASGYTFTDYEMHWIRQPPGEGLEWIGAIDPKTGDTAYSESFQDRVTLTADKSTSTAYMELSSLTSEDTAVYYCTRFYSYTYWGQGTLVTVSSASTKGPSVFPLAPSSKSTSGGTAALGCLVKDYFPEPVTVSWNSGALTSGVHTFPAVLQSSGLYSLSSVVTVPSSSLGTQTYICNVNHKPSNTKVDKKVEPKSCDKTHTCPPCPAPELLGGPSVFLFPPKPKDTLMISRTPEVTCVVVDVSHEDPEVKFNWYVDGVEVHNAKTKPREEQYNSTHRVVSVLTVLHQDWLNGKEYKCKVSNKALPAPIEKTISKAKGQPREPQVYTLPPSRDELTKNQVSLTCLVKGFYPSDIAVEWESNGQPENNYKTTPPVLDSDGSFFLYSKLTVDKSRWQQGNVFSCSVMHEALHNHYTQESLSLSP
light: B1 light
notes: Alteration in both H chains; also called Ho Ab Y300_16H
B8: GpH7-A5/GpH7-B3 variant K334_01G/GpL16-k0 (antibody, human IgG1, kappa)
heavy 1: not shown
heavy 2: not shown
light: B1 light
notes: Alteration in one H chain only; also called He Ab K334_01G
B9: GpH7-A5/GpH7-B3 variant Q295_12R/GpL16-k0 (antibody, human IgG1, kappa)
heavy 1: not shown
heavy 2: not shown
light: B1 light
notes: Alteration in one H chain only; also called He Ab Q295_12R
B10: GpH7-A5/GpH7-B3 variant K334_14T/GpL16-k0 (antibody, human IgG1, kappa)
heavy 1: not shown
heavy 2: not shown
light: B1 light
notes: Alteration in one H chain only; also called He Ab K334_14T
B11: GpH7-A5/GpH7-B3 variant P271_08L/GpL16-k0 (antibody, human IgG1, kappa)
heavy 1: not shown
heavy 2: not shown
light: B1 light
notes: Alteration in one H chain only; also called He Ab P271_08L
B12: GpH7-A5/GpH7-B3 variant Q295_10E/GpL16-k0 (antibody, human IgG1, kappa)
heavy 1: not shown
heavy 2: not shown
light: B1 light
notes: Alteration in one H chain only; also called He Ab Q295_10E
B13: GpH7-A5/GpH7-B3 variant S337_16H/GpL16-k0 (antibody, human IgG1, kappa)
heavy 1: not shown
heavy 2: not shown
light: B1 light
notes: Alteration in one H chain only; also called He Ab S337_16H
B14: GpH7-A5/GpH7-B3 variant S337_11K/GpL16-k0 (antibody, human IgG1, kappa)
heavy 1: not shown
heavy 2: not shown
light: B1 light
notes: Alteration in one H chain only; also called He Ab S337_11K
B15: GpH7-A5/GpH7-B3 variant K334_15Y/GpL16-k0 (antibody, human IgG1, kappa)
heavy 1: not shown
heavy 2: not shown
light: B1 light
notes: Alteration in one H chain only; also called He Ab K334_15Y
B16: GpH7-A5/GpH7-B3 variant Y296_07I/GpL16-k0 (antibody, human IgG1, kappa)
heavy 1: not shown
heavy 2: not shown
light: B1 light
notes: Alteration in one H chain only; also called He Ab Y296_07I
B17: GpH7-A5/GpH7-B3 variant K334_18N/GpL16-k0 (antibody, human IgG1, kappa)
heavy 1: not shown
heavy 2: not shown
light: B1 light
notes: Alteration in one H chain only; also called He Ab K334_18N
B18: GpH7-A5/GpH7-B3 variant K334_13S/GpL16-k0 (antibody, human IgG1, kappa)
heavy 1: not shown
heavy 2: not shown
light: B1 light
notes: Alteration in one H chain only; also called He Ab K334_13S
B19: GpH7-A5/GpH7-B3 variant K334_09D/GpL16-k0 (antibody, human IgG1, kappa)
heavy 1: not shown
heavy 2: not shown
light: B1 light
notes: Alteration in one H chain only; also called He Ab K334_09D
B20: GpH7-A5/GpH7-B3 variant K334_02A/GpL16-k0 (antibody, human IgG1, kappa)
heavy 1: not shown
heavy 2: not shown
light: B1 light
notes: Alteration in one H chain only; also called He Ab K334_02A
B21: GpH7-A5/GpH7-B3 variant S324_09D/GpL16-k0 (antibody, human IgG1, kappa)
heavy 1: not shown
heavy 2: not shown
light: B1 light
notes: Alteration in one H chain only; also called He Ab S324_09D
B22: GpH7-A5/GpH7-B3 variant K334_05P/GpL16-k0 (antibody, human IgG1, kappa)
heavy 1: not shown
heavy 2: not shown
light: B1 light
notes: Alteration in one H chain only; also called He Ab K334_05P
B23: GpH7-A5/GpH7-B3 variant K326_19Q/GpL16-k0 (antibody, human IgG1, kappa)
heavy 1: not shown
heavy 2: not shown
light: B1 light
notes: Alteration in one H chain only; also called He Ab K326_19Q
B24: GpH7-A5/GpH7-B3 variant K326_09D/GpL16-k0 (antibody, human IgG1, kappa)
heavy 1: not shown
heavy 2: not shown
light: B1 light
notes: Alteration in one H chain only; also called He Ab K326_09D
B25: GpH7-A5/GpH7-B3 variant P271_01G/GpL16-k0 (antibody, human IgG1, kappa)
heavy 1: not shown
heavy 2: not shown
light: B1 light
notes: Alteration in one H chain only; also called He Ab P271_01G
B26: GpH7-A5/GpH7-B3 variant K334_08L/GpL16-k0 (antibody, human IgG1, kappa)
heavy 1: not shown
heavy 2: not shown
light: B1 light
notes: Alteration in one H chain only; also called He Ab K334_08L
B27: GpH7-A5/GpH7-B3 variant K326_08L/GpL16-k0 (antibody, human IgG1, kappa)
heavy 1: not shown
heavy 2: not shown
light: B1 light
notes: Alteration in one H chain only; also called He Ab K326_08L
B28: GpH7-A5/GpH7-B3 variant K326_06M/GpL16-k0 (antibody, human IgG1, kappa)
heavy 1: not shown
heavy 2: not shown
light: B1 light
notes: Alteration in one H chain only; also called He Ab K326_06M
B29: GpH7-A5/GpH7-B3 variant P271_18N/GpL16-k0 (antibody, human IgG1, kappa)
heavy 1: not shown
heavy 2: not shown
light: B1 light
notes: Alteration in one H chain only; also called He Ab P271_18N
B30: GpH7-A5/GpH7-B3 variant I336_16H/GpL16-k0 (antibody, human IgG1, kappa)
heavy 1: not shown
heavy 2: not shown
light: B1 light
notes: Alteration in one H chain only; also called He Ab I336_16H

Biological target: T1, FcγRIa (human, UniProt P12314 16-292)
T1 construct: extracellular domain; also called FcgRI; FcgRIa; not shown: His tag attached to the C terminus
T1 sequence (P12314 16-292): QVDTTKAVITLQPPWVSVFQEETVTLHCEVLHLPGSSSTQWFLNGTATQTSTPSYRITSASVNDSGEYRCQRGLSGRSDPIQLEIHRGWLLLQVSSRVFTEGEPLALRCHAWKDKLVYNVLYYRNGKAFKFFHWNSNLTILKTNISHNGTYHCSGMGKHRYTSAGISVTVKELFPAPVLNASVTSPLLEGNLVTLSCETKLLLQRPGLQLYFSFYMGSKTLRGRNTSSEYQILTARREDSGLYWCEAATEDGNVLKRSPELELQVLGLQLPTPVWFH
Experiment: SPR (Biacore), relative binding; control HoCon Ab GpH7-B3/GpL16-k0

Ho/Con_1a | Binder
105 % of control (=100) | B1
109 % of control (=100) | B2
103 % of control (=100) | B3
105 % of control (=100) | B4
104 % of control (=100) | B5
106 % of control (=100) | B6
111 % of control (=100) | B7

Biological target: T1, FcγRIa
Experiment: SPR (Biacore), relative binding; control HeCon Ab GpH7-A5/GpH7-B3/GpL16-k0

He/Con_1a | Binder
104 % of control (=100) | B8
100 % of control (=100) | B9
105 % of control (=100) | B10
102 % of control (=100) | B11
103 % of control (=100) | B12
105 % of control (=100) | B13
104 % of control (=100) | B14
105 % of control (=100) | B15
104 % of control (=100) | B16
105 % of control (=100) | B17
105 % of control (=100) | B18
106 % of control (=100) | B19
106 % of control (=100) | B20
104 % of control (=100) | B21
104 % of control (=100) | B22
102 % of control (=100) | B23
103 % of control (=100) | B24
105 % of control (=100) | B25
105 % of control (=100) | B26
100 % of control (=100) | B27
102 % of control (=100) | B28
103 % of control (=100) | B29
101 % of control (=100) | B30

From patent US20150344570A1 (published 2015)
